Marks after values point to notes of the source that are not given here.
Key:
[1] = biological target: T1, GFRAL/RET/SRE-luc-overexpressing HEK293 cell line (Homo sapiens, UniProt Q6UXV0); experiment: Functional activity of long-acting GDF15 fusion protein (Bright-Glo luciferase assay); assay type: cell-based; details: for EC50: luciferase RLU, 4 hours reaction; for Emax (%): relative to FM9-6+Fc_hole (Emax 100%); for EC50 values (in words) / Emax values (in words): compared with the other linkers
T1 construct: expressed in transfected cells; host or cells: HEK293 (human embryonic kidney 293), overexpressing GFRAL, RET and an SRE-luciferase reporter
T1 sequence (Q6UXV0 19-394, species assumed): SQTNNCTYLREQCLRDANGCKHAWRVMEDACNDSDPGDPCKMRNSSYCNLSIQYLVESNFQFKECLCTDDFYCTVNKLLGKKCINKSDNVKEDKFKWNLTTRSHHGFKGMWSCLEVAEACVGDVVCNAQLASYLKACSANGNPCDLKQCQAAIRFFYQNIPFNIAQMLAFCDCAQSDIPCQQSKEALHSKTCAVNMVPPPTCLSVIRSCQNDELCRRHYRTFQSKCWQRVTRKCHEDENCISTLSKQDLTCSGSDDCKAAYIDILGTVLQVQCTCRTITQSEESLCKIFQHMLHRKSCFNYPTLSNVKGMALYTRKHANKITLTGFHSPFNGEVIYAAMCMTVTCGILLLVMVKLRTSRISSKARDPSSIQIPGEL
T1 sequence (P07949 29-1114 partner, species assumed): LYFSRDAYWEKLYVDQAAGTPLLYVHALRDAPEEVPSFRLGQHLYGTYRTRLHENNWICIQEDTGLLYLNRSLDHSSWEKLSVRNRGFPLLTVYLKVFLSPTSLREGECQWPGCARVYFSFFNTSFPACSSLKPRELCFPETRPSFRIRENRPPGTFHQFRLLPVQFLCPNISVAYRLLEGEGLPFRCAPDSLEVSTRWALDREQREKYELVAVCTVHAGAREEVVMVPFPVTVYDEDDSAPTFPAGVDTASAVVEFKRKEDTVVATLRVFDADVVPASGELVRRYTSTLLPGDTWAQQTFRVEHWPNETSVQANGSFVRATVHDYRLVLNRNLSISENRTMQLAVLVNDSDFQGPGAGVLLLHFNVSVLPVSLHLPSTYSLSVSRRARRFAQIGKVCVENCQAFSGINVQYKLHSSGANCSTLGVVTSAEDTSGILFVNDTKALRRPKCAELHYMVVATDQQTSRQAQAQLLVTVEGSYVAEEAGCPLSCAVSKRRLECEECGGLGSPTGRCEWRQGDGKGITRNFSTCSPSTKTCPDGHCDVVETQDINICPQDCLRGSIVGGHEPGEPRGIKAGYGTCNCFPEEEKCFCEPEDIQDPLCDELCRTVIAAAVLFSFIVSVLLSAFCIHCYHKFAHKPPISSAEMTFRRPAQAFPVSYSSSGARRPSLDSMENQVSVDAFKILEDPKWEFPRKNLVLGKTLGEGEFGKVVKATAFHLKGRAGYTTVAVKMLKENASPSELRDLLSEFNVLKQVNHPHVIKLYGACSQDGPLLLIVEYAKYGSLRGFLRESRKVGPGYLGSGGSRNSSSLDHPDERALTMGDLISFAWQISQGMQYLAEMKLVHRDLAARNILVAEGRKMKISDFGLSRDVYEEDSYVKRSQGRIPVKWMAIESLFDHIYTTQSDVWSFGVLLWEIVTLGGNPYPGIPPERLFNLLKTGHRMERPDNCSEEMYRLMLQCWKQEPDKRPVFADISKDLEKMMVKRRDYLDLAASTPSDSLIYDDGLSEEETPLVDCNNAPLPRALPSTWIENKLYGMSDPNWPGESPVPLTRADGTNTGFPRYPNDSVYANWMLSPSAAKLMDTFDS
Method: Two variants (FM9+Fc_hole, FM11+Fc_hole) were compared and evaluated for GDF15 activity depending on the linker type and length. The GDF15 activity was measured using a Bright-Glo™ luciferase assay kit (Promega) and a GFRAL/RET/SRE-luc-overexpressing HEK293 cell line (Human embryonic kidney 293).
Specifically, 1×10^5 GFRAL/RET/SRE-luc-overexpressing HEK293 cells were dispended in DMEM containing 10% FBS in each well of a 96-well-plate, followed by culture at 37° C. and 5% CO2 for 24 hours. After 24 hours, each medium of the 96-well plate was replaced with 50 μl of a serum-free medium, followed by culture at 37° C. and 5% CO2 for 4 hours.
In addition, the long-acting GDF15 fusion protein produced in Example 1 was prepared by 3-fold serial dilution from a concentration of 2000 nM using a serum-free medium. Thereafter, 50 μl of the long-acting GDF15 fusion protein dilution was added to each well containing 50 μl of the replaced serum-free medium and the GERAL/RET/SRE-luc cell line so that the actual concentration thereof was serially diluted 3-fold from 1000 nM, followed by reaction at 37° C. and 5% CO2 for 4 hours. After 4 hours, each well was treated with 100 μl of a Bright-Glo™ solution prepared by adding a Bright-Glo™ buffer to a Bright-Glo™ substrate, followed by reaction at room temperature for 1 minute.
Thereafter, the reaction value (relative light units, RLU) was measured using a microplate reader (Perkin Elmer, Wallac Victor X5) capable of measuring luminescence. The results thereof are shown in Table 2 below and in FIGS. 1 and 2. Here, the functional activity of the long-acting GDF15 fusion protein depending on the GDF15 sequence, linker type, and length was compared based on the in-vitro GDF15 activity of FM9-6+Fc_hole (Emax 100%).

[2] = Inhibitory effect on gastric emptying (acetaminophen exposure) in normal rats (Example 8); assay type: in vivo; details: rats, 30 mg/kg oral, positive control
Method: Therefore, this example was performed to investigate the inhibitory effect on gastric emptying when the novel long-acting GDF15 fusion protein was administered at the doses equal to the effective dose, higher than the maximum effective dose, or in combination with a GLP-1 receptor agonist to rats. 6-week-old male SD rats (Orient Bio, Republic of Korea) were purchased from Hallym Lab. Animal Inc., Republic of Korea. Animals were acclimated for 7 days. On the day of drug administration, the rats were grouped based on the average body weight of individual rats (n=5 per group) and fasted for at least 6 hours before oral administration of acetaminophen. Then, 0.1, 1, and 10 nmol/kg of FM9-6+Fc_hole, 10 nmol/kg of semaglutide (long-acting GLP-1 derivative, SEQ ID NO: 114), and combination of FM9-6+Fc_hole and semaglutide (1+10 nmol/kg) were subcutaneously administered. The semaglutide was Ozempic® (semaglutide) from Novo NorDisk. As a negative control drug, D-PBS (normal vehicle) was subcutaneously administered, and as a positive control drug, 30 mg/kg of loperamide was orally administered 45 minutes before acetaminophen administration. On 3, 24 and 72 hours after a single dose of the test articles, acetaminophen was orally administered at 100 mg/kg to rats, and blood samples were collected before and at 30, 60, 90, 120 and 150 minutes after acetaminophen administration. The plasma concentration of acetaminophen was analyzed, and the pharmacokinetic profiles and the systemic exposures of acetaminophen were compared to evaluate the inhibitory effect on gastric emptying among the groups.

[3] = Pharmacokinetics of long-acting GDF15 fusion protein (dimer) in C57BL/6N mice; assay type: in vivo; details: 1 mg/kg subcutaneous; for Cmax: active GDF15 in serum by ELISA
Method: 6-week-old male C57BL/6N mice (Orient Bio, Republic of Korea) were purchased from Hallym Lab. Animal Inc., Republic of Korea. Animals were acclimated for 7 days, and on the day of drug administration, the mice were grouped based on the average body weight of individual mice (n=3 per blood sampling time per group). Then, FM9-4+Fc_hole, FM9-6+Fc_hole, FM11-4+Fc_hole, and FM11-6+Fc_hole were subcutaneously administered at 1 mg/kg to each group, and blood samples were collected at 4, 24, 48, 72, 96, 120, 168, and 240 hours after administration. Determination of active GDF15 in serum was achieved by enzyme-linked immunosorbent assay (ELISA), and pharmacokinetic parameters of each long-acting GDF15 fusion protein (dimer) are shown in Table 3 below.

| EC50 [1] | Emax (%) [1] | Compound | AUClast [3] | CL/F [3] | T1/2,app [3] | Tmax [3] | Cmax [3] | other results |
| --- | --- | --- | --- | --- | --- | --- | --- | --- |
| 9.5 nM | 110.8% | FM9-2 + Fc_hole: long-acting GDF15 fusion protein (dimer): GDF15 ΔN2, S64R, IgG1 Fc_knob/Fc_hole, linker GS(G4S)5; SEQ ID NOs: 99 and 47 | – | – | – | – | – | – |
| 9.3 nM | 95.6% | FM9-3 + Fc_hole: long-acting GDF15 fusion protein (dimer): GDF15 ΔN2, S64R, IgG1 Fc_knob/Fc_hole, linker GS(G4S)7; SEQ ID NOs: 100 and 47 | – | – | – | – | – | – |
| – | – | CN(C)C(=O)C(CCN1CCC(O)(c2ccc(Cl)cc2)CC1)(c1ccccc1)c1ccccc1 [Loperamide, loperamide, reference compound] | – | – | – | – | – | AUClast of acetaminophen (μg · min/mL), 3 hr ([2]; 3 hr): 1565.13 µg·min/mL; AUClast of acetaminophen (μg · min/mL), 24 hr ([2]; 24 hr): 761.04** μg · min/mL; AUClast of acetaminophen (μg · min/mL), 72 hr ([2]; 72 hr): 996.36*** μg · min/mL |
| – | – | FM9-4 + Fc_hole: long-acting GDF15 fusion protein (dimer): GDF15 ΔN2, S64R, IgG1 Fc_knob/Fc_hole, linker GS(EEEA)6; SEQ ID NOs: 101 and 47 | 750.49702 µg·h/mL | 1.30 mL/h/kg | 36.84 h | 24 h | 8421.37 ng/mL | EC50 values (in words) [1]: relatively low EC50 values; Emax values (in words) [1]: high Emax values |
| – | – | FM11-4 + Fc_hole: long-acting GDF15 fusion protein (dimer): GDF15 ΔN3, G4N, D5S, H6T, S64R, IgG1 Fc_knob/Fc_hole, linker GS(EEEA)6; SEQ ID NOs: 107 and 47 | 690.21308 µg·h/mL | 1.41 mL/h/kg | 40.61 h | 24 h | 7200.02 ng/mL | EC50 values (in words) [1]: relatively low EC50 values; Emax values (in words) [1]: high Emax values |
| 7.7 nM | 79.4% | FM11-2 + Fc_hole: long-acting GDF15 fusion protein (dimer): GDF15 ΔN3, G4N, D5S, H6T, S64R, IgG1 Fc_knob/Fc_hole, linker GS(G4S)5; SEQ ID NOs: 105 and 47 | – | – | – | – | – | – |
| 7.8 nM | 81.0% | FM11-3 + Fc_hole: long-acting GDF15 fusion protein (dimer): GDF15 ΔN3, G4N, D5S, H6T, S64R, IgG1 Fc_knob/Fc_hole, linker GS(G4S)7; SEQ ID NOs: 106 and 47 | – | – | – | – | – | – |
| – | – | FM11-6 + Fc_hole: long-acting GDF15 fusion protein (dimer): GDF15 ΔN3, G4N, D5S, H6T, S64R, IgG1 Fc_knob/Fc_hole, linker GS(EAAAK)5; SEQ ID NOs: 109 and 47 | 116.43394 µg·h/mL | 8.43 mL/h/kg | 25.84 h | 24 h | 1547.77 ng/mL | – |

— patent US20240238380A1, “COMPOSITION FOR COMBINATION THERAPY COMPRISING GROWTH DIFFERENTIATION FACTOR-15 VARIANT AND GLUCAGON-LIKE PEPTIDE-1 RECEPTOR AGONIST” (YUHAN CORPORATION, priority 2021, published 2024)
